According to patent publication US20250388669A1 (published 2025):

T1: CD19 (UniProt P15391 20-556, limits assumed)
T1 construct: whole, on cells
T1 sequence (looked up): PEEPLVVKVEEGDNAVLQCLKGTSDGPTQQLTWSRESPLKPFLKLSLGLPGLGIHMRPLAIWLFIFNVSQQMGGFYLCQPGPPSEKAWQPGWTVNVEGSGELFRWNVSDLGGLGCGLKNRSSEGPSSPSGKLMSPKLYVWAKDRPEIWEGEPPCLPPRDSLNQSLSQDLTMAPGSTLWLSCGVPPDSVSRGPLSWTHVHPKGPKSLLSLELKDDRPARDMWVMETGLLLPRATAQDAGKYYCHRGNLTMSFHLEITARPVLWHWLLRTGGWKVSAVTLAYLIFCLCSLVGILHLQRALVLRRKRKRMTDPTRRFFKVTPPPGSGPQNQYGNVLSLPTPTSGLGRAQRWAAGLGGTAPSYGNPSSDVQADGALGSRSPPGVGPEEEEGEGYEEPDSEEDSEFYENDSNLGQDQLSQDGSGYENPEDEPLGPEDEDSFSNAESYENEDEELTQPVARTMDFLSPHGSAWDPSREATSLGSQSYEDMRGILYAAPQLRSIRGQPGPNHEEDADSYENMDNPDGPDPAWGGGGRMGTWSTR

B1: Ly2280 (bispecific antibody)
chain 1: not shown
chain 2: QVTLKESGPALVKPTQTLTLTCTFSGFSLSTSGTCVSWIRQPPGKALEWLATICWEDSKGYNPSLKSRLTISKDTSKNQAVLTMTNMDPVDTATYYCARREDSGYFWFPYWGQGTLVTVSSASTKGPSVFPLAPSSKSTSGGTAALGCLVKDYFPEPVTVSWNSGALTSGVHTFPAVLQSSGLYSLSSVVTVPSSSLGTQTYICNVNHKPSNTKVDKKVEPKSCGGGGSGGGGSGGGGSGGGGSDIQMTQSPSSVSASVGDRVTITCRASQGIYSWLAWYQQKPGKAPNLLIYTASTLQSGVPSRFSGSGSGTDFTLTISSLQPEDFATYYCQQANIFPLTFGGGTKVEIKGGGGSDKTHTCPPCPAPEAAGPSVFLFPPKPKDTLMISRTPEVTCVVVDVSHEDPEVKFNWYVDGVEVHNAKTKPREEQYNSTYRVVSVLTVLHQDWLNGKEYKCKVSNKALPAPIEKTISKAKGQPREPQVYTLPPSREEMTKNQVSLSCAVKGFYPSDIAVEWESNGQPENNYKTTPPVLDSDGSFFLVSKLTVDKSRWQQGNVFSCSVMHEALHNRFTQKSLSLSPG
light: NIQMTQSPSSLSASVGDRVTITCKAGQNVNNYLAWYQQKPGKAPKVLIFNANSLQTGVPSRFSGSGSGTDFTLTISSLQPEDFATYYCQQYNSWPTFGGGTKVEIKRTVAAPSVFIFPPSDEQLKSGTASVVCLLNNFYPREAKVQWKVDNALQSGNSQESVTEQDSKDSTYSLSSTLTLSKADYEKHKVYACEVTHQGLSSPVTKSFNRGEC
notes: PD-1 Fabs, central CD40 Fv
B2: Ly2278 (bispecific antibody)
chain 1: QVQLQQSGAELVRPGSSVKISCKASGYAFSSYWMNWVKQRPGQGLEWIGQIWPGDGDTNYNGKFKGKATLTADESSSTAYMQLSSLASEDSAVYFCARRETTTVGRYYYAMDYWGQGTTVTVSSASTKGPSVFPLAPSSKSTSGGTAALGCLVKDYFPEPVTVSWNSGALTSGVHTFPAVLQSSGLYSLSSVVTVPSSSLGTQTYICNVNHKPSNTKVDKKVEPKSCGGGGSGGGGSGGGGSGGGGSEVQLVESGGGLVQPGGSLRLSCAASGFTFSTYAMNWVRQAPGKGLEWVGRIRSKYNNYATYYADSVKGRFTISRDDSKNSLYLQMNSLKTEDTAVYYCVRHGNFGNSYVSWFAYWGQGTLVTVSSGGGGSDKTHTCPPCPAPEAAGPSVFLFPPKPKDTLMISRTPEVTCVVVDVSHEDPEVKFNWYVDGVEVHNAKTKPREEQYNSTYRVVSVLTVLHQDWLNGKEYKCKVSNKALPAPIEKTISKAKGQPREPQVYTLPPSREEMTKNQVSLWCLVKGFYPSDIAVEWESNGQPENNYKTTPPVLDSDGSFFLYSKLTVDKSRWQQGNVFSCSVMHEALHNHYTQKSLSLSPG
chain 2: QVQLQQSGAELVRPGSSVKISCKASGYAFSSYWMNWVKQRPGQGLEWIGQIWPGDGDTNYNGKFKGKATLTADESSSTAYMQLSSLASEDSAVYFCARRETTTVGRYYYAMDYWGQGTTVTVSSASTKGPSVFPLAPSSKSTSGGTAALGCLVKDYFPEPVTVSWNSGALTSGVHTFPAVLQSSGLYSLSSVVTVPSSSLGTQTYICNVNHKPSNTKVDKKVEPKSCGGGGSGGGGSGGGGSGGGGSQAVVTQEPSLTVSPGGTVTLTCRSSTGAVTTSNYANWVQQKPGQAPRGLIGGTNKRAPWTPARFSGSLLGGKAALTITGAQAEDEADYYCALWYSNLWVFGGGTKLTVLGGGGSDKTHTCPPCPAPEAAGPSVFLFPPKPKDTLMISRTPEVTCVVVDVSHEDPEVKFNWYVDGVEVHNAKTKPREEQYNSTYRVVSVLTVLHQDWLNGKEYKCKVSNKALPAPIEKTISKAKGQPREPQVYTLPPSREEMTKNQVSLSCAVKGFYPSDIAVEWESNGQPENNYKTTPPVLDSDGSFFLVSKLTVDKSRWQQGNVFSCSVMHEALHNRFTQKSLSLSPG
light: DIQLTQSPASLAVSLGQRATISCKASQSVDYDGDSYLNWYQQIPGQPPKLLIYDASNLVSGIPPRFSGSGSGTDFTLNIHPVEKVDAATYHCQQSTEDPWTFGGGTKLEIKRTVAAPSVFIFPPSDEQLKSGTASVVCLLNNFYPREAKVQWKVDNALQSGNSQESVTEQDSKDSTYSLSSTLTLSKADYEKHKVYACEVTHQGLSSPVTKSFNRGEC
notes: Bispecific CD19 (two Fabs) / CD3 (central Fv)
B3: Ly238 (antibody, V domains shown)
VH: QVQLQQSGAELVRPGSSVKISCKASGYAFSSYWMNWVKQRPGQGLEWIGQIWPGDGDTNYNGKFKGKATLTADESSSTAYMQLSSLASEDSAVYFCARRETTTVGRYYYAMDYWGQGTTVTVSS
VL: DIQLTQSPASLAVSLGQRATISCKASQSVDYDGDSYLNWYQQIPGQPPKLLIYDASNLVSGIPPRFSGSGSGTDFTLNIHPVEKVDAATYHCQQSTEDPWTFGGGTKLEIK
notes: Parent mAb; also called Anti-CD19 Ly238; parent anti-CD19 mAb
B4: Ly1966 (other)
chain 1: QVQLQQSGAELVRPGSSVKISCKASGYAFSSYWMNWVKQRPGQGLEWIGQIWPGDGDTNYNGKFKGKATLTADESSSTAYMQLSSLASEDSAVYFCARRETTTVGRYYYAMDYWGQGTTVTVSSASTKGPSVFPLAPSSKSTSGGTAALGCLVKDYFPEPVTVSWNSGALTSGVHTFPAVLQSSGLYSLSSVVTVPSSSLGTQTYICNVNHKPSNTKVDKKVEPKSCGGGGSGGGGSGGGGSGGGGSEVQLVESGGGLVQPGGSLRLSCAASGFTFSTYAMNWVRQAPGKGLEWVGRIRSKYNNYATYYADSVKGRFTISRDDSKNSLYLQMNSLKTEDTAVYYCVRHGNFGNSYVSWFAYWGQGTLVTVSSGGGGSDKTHTCPPCPAPEAAGPSVFLFPPKPKDTLMISRTPEVTCVVVDVSHEDPEVKFNWYVDGVEVHNAKTKPREEQYNSTYRVVSVLTVLHQDWLNGKEYKCKVSNKALPAPIEKTISKAKGQPREPQVYTLPPSREEMTKNQVSLWCLVKGFYPSDIAVEWESNGQPENNYKTTPPVLDSDGSFFLYSKLTVDKSRWQQGNVFSCSVMHEALHNHYTQKSLSLSPGGGGGSGGGGSGGGGSGGGGSQVQLVQSGAEVKKPGASVKVSCKASGYTFAGFEMHWVRQAPGQGLEWMGAIDPKTGGTDYNQKFKDRVTMTRDTSISTAYMELSRLRSDDTAVYYCARDLGYFDVWGQGTLVTVSS
chain 2: QVQLQQSGAELVRPGSSVKISCKASGYAFSSYWMNWVKQRPGQGLEWIGQIWPGDGDTNYNGKFKGKATLTADESSSTAYMQLSSLASEDSAVYFCARRETTTVGRYYYAMDYWGQGTTVTVSSASTKGPSVFPLAPSSKSTSGGTAALGCLVKDYFPEPVTVSWNSGALTSGVHTFPAVLQSSGLYSLSSVVTVPSSSLGTQTYICNVNHKPSNTKVDKKVEPKSCGGGGSGGGGSGGGGSGGGGSQAVVTQEPSLTVSPGGTVTLTCRSSTGAVTTSNYANWVQQKPGQAPRGLIGGTNKRAPWTPARFSGSLLGGKAALTITGAQAEDEADYYCALWYSNLWVFGGGTKLTVLGGGGSDKTHTCPPCPAPEAAGPSVFLFPPKPKDTLMISRTPEVTCVVVDVSHEDPEVKFNWYVDGVEVHNAKTKPREEQYNSTYRVVSVLTVLHQDWLNGKEYKCKVSNKALPAPIEKTISKAKGQPREPQVYTLPPSREEMTKNQVSLSCAVKGFYPSDIAVEWESNGQPENNYKTTPPVLDSDGSFFLVSKLTVDKSRWQQGNVFSCSVMHEALHNRFTQKSLSLSPGGGGGSGGGGSGGGGSGGGGSDIQMTQSPSSLSASVGDRVTITCRASQDIRSNLNWYQQKPGGAVKLLIYYTSRLHSGVPSRFSGSGSGTDYTLTISSLQPEDFATYFCQQSEKLPRTFGGGTKVEIR
light: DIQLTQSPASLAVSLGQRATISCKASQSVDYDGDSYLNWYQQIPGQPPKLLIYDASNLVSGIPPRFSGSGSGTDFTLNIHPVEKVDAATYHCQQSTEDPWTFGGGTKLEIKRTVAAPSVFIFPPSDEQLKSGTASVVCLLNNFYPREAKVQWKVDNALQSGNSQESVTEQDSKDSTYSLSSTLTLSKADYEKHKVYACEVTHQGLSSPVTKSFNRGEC
notes: Tri-specific antibody CD19 (two Fabs) / CD3 (central Fv) / CD137 (terminal Fv)
B5: Ly1967 (other)
chain 1: QVQLQQSGAELVRPGSSVKISCKASGYAFSSYWMNWVKQRPGQGLEWIGQIWPGDGDTNYNGKFKGKATLTADESSSTAYMQLSSLASEDSAVYFCARRETTTVGRYYYAMDYWGQGTTVTVSSASTKGPSVFPLAPSSKSTSGGTAALGCLVKDYFPEPVTVSWNSGALTSGVHTFPAVLQSSGLYSLSSVVTVPSSSLGTQTYICNVNHKPSNTKVDKKVEPKSCGGGGSGGGGSGGGGSGGGGSEVQLVESGGGLVQPGGSLRLSCAASGFTFSTYAMNWVRQAPGKGLEWVGRIRSKYNNYATYYADSVKGRFTISRDDSKNSLYLQMNSLKTEDTAVYYCVRHGNFGNSYVSWFAYWGQGTLVTVSSGGGGSDKTHTCPPCPAPEAAGPSVFLFPPKPKDTLMISRTPEVTCVVVDVSHEDPEVKFNWYVDGVEVHNAKTKPREEQYNSTYRVVSVLTVLHQDWLNGKEYKCKVSNKALPAPIEKTISKAKGQPREPQVYTLPPSREEMTKNQVSLWCLVKGFYPSDIAVEWESNGQPENNYKTTPPVLDSDGSFFLYSKLTVDKSRWQQGNVFSCSVMHEALHNHYTQKSLSLSPGGGGGSGGGGSGGGGSGGGGSQVQLVQSGAEVKKPGASVKVSCKASGYTFAGFEMHWVRQAPGQGLEWMGAIDPKTGGTDYNQKFKDRVTMTRDTSISTAYMELSRLRSDDTAVYYCARDLGYFDVWGQGTLVTVSS
chain 2: QVQLQQSGAELVRPGSSVKISCKASGYAFSSYWMNWVKQRPGQGLEWIGQIWPGDGDTNYNGKFKGKATLTADESSSTAYMQLSSLASEDSAVYFCARRETTTVGRYYYAMDYWGQGTTVTVSSASTKGPSVFPLAPSSKSTSGGTAALGCLVKDYFPEPVTVSWNSGALTSGVHTFPAVLQSSGLYSLSSVVTVPSSSLGTQTYICNVNHKPSNTKVDKKVEPKSCGGGGSGGGGSGGGGSGGGGSQAVVTQEPSLTVSPGGTVTLTCRSSTGAVTTSNYANWVQQKPGQAPRGLIGGTNKRAPWTPARFSGSLLGGKAALTITGAQAEDEADYYCALWYSNLWVFGGGTKLTVLGGGGSDKTHTCPPCPAPEAAGPSVFLFPPKPKDTLMISRTPEVTCVVVDVSHEDPEVKFNWYVDGVEVHNAKTKPREEQYNSTYRVVSVLTVLHQDWLNGKEYKCKVSNKALPAPIEKTISKAKGQPREPQVYTLPPSREEMTKNQVSLSCAVKGFYPSDIAVEWESNGQPENNYKTTPPVLDSDGSFFLVSKLTVDKSRWQQGNVFSCSVMHEALHNHYTQKSLSLSPGGGGGSGGGGSGGGGSGGGGSDIQMTQSPSSLSASVGDRVTITCRASQDIRSNLNWYQQKPGGAVKLLIYYTSRLHSGVPSRFSGSGSGTDYTLTISSLQPEDFATYFCQQSEKLPRTFGGGTKVEIR
light: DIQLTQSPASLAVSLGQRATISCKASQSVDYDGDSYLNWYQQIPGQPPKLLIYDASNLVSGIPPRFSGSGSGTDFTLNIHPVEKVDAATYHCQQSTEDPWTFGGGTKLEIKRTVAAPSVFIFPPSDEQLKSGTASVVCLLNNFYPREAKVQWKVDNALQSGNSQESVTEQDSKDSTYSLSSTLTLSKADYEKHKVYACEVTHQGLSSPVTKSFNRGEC
notes: as for B4

How the values were obtained:
CD40 = biological target: T2, CD40 (human, UniProt P25942 21-193); assay: CD40 binding (method not given)
T2 construct: In the reporter assay it is whole, on GS-H2-huCD40 cells; also called huCD40
T2 sequence (P25942 21-193 limits assumed): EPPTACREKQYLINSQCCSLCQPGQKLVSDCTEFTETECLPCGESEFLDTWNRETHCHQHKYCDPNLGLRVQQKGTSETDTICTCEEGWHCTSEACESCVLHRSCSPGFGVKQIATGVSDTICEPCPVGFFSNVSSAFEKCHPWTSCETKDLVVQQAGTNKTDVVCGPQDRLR

CD19 = biological target: T1, CD19; assay: FCM or ELISA (graded summary table)
CD137 = biological target: T3, CD137 (UniProt Q07011 24-186, limits assumed); assay: FCM or ELISA (graded summary table)
T3 construct: also called 4-1BB

Row | Binder | binding result (CD19) | binding result (CD137) | further results
1 | B1 | – | – | EC50 (CD40): 3.17 µg/mL
2 | B2 | binds | – | –
3 | B3 | binds | – | –
4 | B4 | – | binds | –
5 | B5 | – | binds | –
